In publication PMC5377818 (The Journal of Biological Chemistry, 2017):

What was measured:
[1] = target: FLAG-tagged influenza A virus M2 protein (influenza A virus (strain not stated)) (UniProt P05780); test: co-IP
[2] = target: c-Myc-tagged cyclin D1 (UniProt P24385 1-295); test: co-IP; conditions: partners not purified
Chain of c-Myc-tagged cyclin D1 (P24385 whole entry): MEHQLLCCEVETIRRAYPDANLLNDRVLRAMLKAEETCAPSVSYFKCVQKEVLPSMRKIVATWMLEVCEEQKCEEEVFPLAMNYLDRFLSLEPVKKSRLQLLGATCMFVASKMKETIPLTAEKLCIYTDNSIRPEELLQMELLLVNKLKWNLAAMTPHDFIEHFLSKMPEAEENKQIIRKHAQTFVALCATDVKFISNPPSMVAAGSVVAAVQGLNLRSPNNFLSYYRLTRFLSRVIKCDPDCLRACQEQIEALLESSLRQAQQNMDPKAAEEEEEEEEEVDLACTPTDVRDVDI

Chain of FLAG- and c-Myc-tagged human cyclin D3 (P30281 whole entry): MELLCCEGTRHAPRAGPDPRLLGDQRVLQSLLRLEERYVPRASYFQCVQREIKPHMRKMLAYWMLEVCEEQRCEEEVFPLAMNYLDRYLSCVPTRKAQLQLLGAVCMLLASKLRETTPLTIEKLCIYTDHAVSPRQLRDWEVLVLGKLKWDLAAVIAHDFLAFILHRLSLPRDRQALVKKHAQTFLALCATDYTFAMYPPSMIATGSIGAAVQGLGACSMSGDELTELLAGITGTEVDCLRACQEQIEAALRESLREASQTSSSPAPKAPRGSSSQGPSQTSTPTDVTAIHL

Molecule	percent reduction of M1 co-precipitated with M2 [1]	M2 co-precipitated, relative to cyclin D3 [2]
FLAG- and c-Myc-tagged human cyclin D3 (from UniProt P30281-1 1-292) (natural protein)	70%	–
Influenza A/WSN/33 virus M2 protein made in infected cells (natural protein) MSLLTEVETPIRNEWGCRCNDSSDPLVIAANIIGILHLILWILDRLFFKCIYRRFKYGLKRGPSTEGVPESMREEYRKEQQNAVDVDDGHFVNIELE	–	~50%
